B1: BDNF promoter IV 45 bp unmethylated (dsDNA)
DNA 1: GCCATGCCCTGGAACGGAACTCTCCTAATAAAAGATGTATCATTT
DNA 2: AAATGATACATCTTTTATTAGGAGAGTTCCGTTCCAGGGCATGGC
B2: BDNF promoter IV 45 bp mCpG (dsDNA)
DNA 1: GCCATGCCCTGGAACGGAACTCTCCTAATAAAAGATGTATCATTT
DNA 2: AAATGATACATCTTTTATTAGGAGAGTTCCGTTCCAGGGCATGGC
modifications: 5-methylcytosine at C15 of strand 1 and C30 of strand 2 (symmetric mCpG)

What was measured:
Settings in all cases: protein: recombinant; tags: His-tag removed (PreScission); blunt
MeCP2 NTD-MBD = MeCP2 NTD-MBD (UniProt P51608 1-162); test: ITC; pH 7; ITC: Tris 50 mM, pH 7, 20 °C (also 15 and 17.5 °C; Pipes or phosphate 50 mM, pH 7), no added NaCl unless stated; protein 3-5 uM in cell, dsDNA 50 uM titrant
MeCP2 MBD = MeCP2 MBD (UniProt P51608 78-162); test: as above
MeCP2 NTD-MBD-ID [1] = biological target: T1, MeCP2 NTD-MBD-ID (UniProt P51608 1-206); test: ITC; pH 7; ID site of two-site model; ITC: Tris 50 mM, pH 7, 20 °C (also 15 and 17.5 °C; Pipes or phosphate 50 mM, pH 7), no added NaCl unless stated; protein 3-5 uM in cell, dsDNA 50 uM titrant
MeCP2 NTD-MBD-ID [2] = biological target: T1, MeCP2 NTD-MBD-ID; test: ITC; pH 7; MBD site of two-site model; ITC: Tris 50 mM, pH 7, 20 °C (also 15 and 17.5 °C; Pipes or phosphate 50 mM, pH 7), no added NaCl unless stated; protein 3-5 uM in cell, dsDNA 50 uM titrant

Binder | Kd (MeCP2 NTD-MBD) [µM] | Kd (MeCP2 MBD) [µM] | Kd (MeCP2 NTD-MBD-ID [1]) [µM] | Kd (MeCP2 NTD-MBD-ID [2]) [µM]
B1 | 0.21 | 0.45 | 0.25 | 0.0019
B2 | 0.09 | 0.24 | 0.062 | 0.00056
